Measurements published in PMC5733570.

Experiments:
[1] = biological target: TbTrm140 (3-methylcytosine methyltransferase of Trypanosoma brucei), wild type (T. brucei); assay: SEC
[2] = biological target: TbTrm140 N-terminal deletion mutant (TbTrm140 ΔS2-G17) (T. brucei); assay: SEC

| Substance | stoichiometry N [1] | stoichiometry N [2] |
| --- | --- | --- |
| TbTrm140 (3-methylcytosine methyltransferase of Trypanosoma brucei), wild type (enzyme) | 2 | – |
| TbTrm140 N-terminal deletion mutant (TbTrm140 ΔS2-G17) (enzyme) | – | 2 |
